Measured values published in the nanobody polyreactivity screen of Harvey et al. (2022).

Assay: yeast display, Sf9 membrane polyspecificity reagent, FACS + sequencing; frameworks hold sequencing errors
Method in brief: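 After 36–48 hours of galactose induction, yeast (Saccharomyces cerevisiae BJ5465) displaying a synthetic nanobody library were stained at 4 °C for 1 hour with 10% biotinylated, detergent-solubilized Sf9 membrane reagent. Streptavidin microbeads enriched the stained cells before FACS sorting into low and high (top ~1%) gates on anti-HA and streptavidin fluorescence. Each clone's polyreactivity label reflects its gate of origin.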

Row | Sequence | polyreactivity (PSR sort gate)
1 | QVQLVESGGGLVQAGGSLRLSCAASGSTFDLYAMGWYRQAPGKERELVAGISRGGSTYYADSVKGRFTISRDNAKNTVYLQMNSLKPEDTAVYYCAAYFRYRSSRYGYWGQGTQVTVSS | high polyreactivity
2 | QVQLVESGGGLVQAGGSLRLSCAASGGIFSVYAMGWYRQPPGKERELVASITVSGGSTSYADSVKGRFTISRDTAKNTVYLQMNSLKPEDTAVYYCNTDFGQAHTLSWYEDMDYWGQGTQVTVSS | low polyreactivity
3 | QVQLVESGGGLVQAGGRLRLSCAASGSIFIGYAMGWYRPAPGKERELVAAISGSGSSTYYADSVKGRFTISRDNAKNTVYLQMNSLKPEDTAVYYCAARTYSRFTASTYYYWGQGTQVTVSS | high polyreactivity
4 | QVQLVASGGGLVQAGGSLRLSCAASGTTLYYYAKGWYRQAPGKEREMGAYISSSGDRTYYADSVNGRFTISRDNAKNTVDLQMNSLKPEDTAVYYCNAYLYVSGLDYATYSLGYWGQGTQVTVSS | low polyreactivity
5 | QVHLVESGGGLVQAGGSLRLSCAASGRIFGVNAMGWYRQAPGKERELVAAITWSGGSTYYADSVKGRFTISRDNAKITVYLEMNSLKPEDTAVYYCAVEGQFDDGWAWYDYWGQGTQVTVSS | high polyreactivity
6 | QVQLVESGGGLVQAGGSLSLSCAASGFTFDYYAMGWYRQAPGKERELVAAISTSGGSTYYADSVKGRFTISRDNAMNTVYLQMNSLKPEDTAVYYCNVVFYEYSSVSYDYWGQGTQVTVSS | high polyreactivity
7 | QVQLVESGGGFVQAGGSLRLICAAYRSIFSLYAMGWYRQAPGKERELVAHISSDGSTNYADSVKGRFTISRDNAKNTVYLQMNSLKPEDTAVYYCAKKPSSARYFTIGFDYWGQGTQVTVSS | low polyreactivity
8 | QVQLVESGGGLVQAGGSLRLSCAASGFIIQGNALGWYRQAPGTERELVAAISSSVSTYYADSVKGRFTISRDNAKNTVYLQMNSLKPEDNAVYDCNAGFPLSLWLGDYWGQGTLVTVSS | low polyreactivity
9 | QVQLVESRGGLVQAGGSLRISCAASGRIFGYNAMGWYRQAPGKERELVAAISASGGRTYYADSVKARFTISRDNAKNTVYLQMNSLKPEDTAVYYCATKYRSFYSYDYWGQGTQVTVSS | high polyreactivity
10 | QVQLVESGGGLVQAGGSLRLSCAASGITFVANAMGWYRQAPGKETELVAGITQTGGSTYYADSVKGRFTISRDKAKNTVYLQMNSQKPEDTAVYYCAATYRRLRYGKLYYYWGQGTQVTVSS | high polyreactivity
11 | QVQLVESGGGLVQAGGSLRLSCAASGSTFYKNAMGWYRQAPGKERELVAVINASGDSTYYADSVKGRFTISRDNAKNTVYLQMNSLKPEDTAVYYCAADHRGEYDYWGQGTQVTVSS | low polyreactivity
12 | QVQLVESGGGLVQAGCSLRLSCAASGRTFVYNAMGWYRKAPGKERELVAGITGSGDSTYYADSVKGRFTISRDNAKNTVYLQMNSMKPEDTAVYYCNQLVEEDYWGQGTQVTVSS | low polyreactivity
13 | QVQLVESGGGLVQAGGSLRLSCAASGRIFYDYTMGWYRQEPGKERELVAAINSGGGSTYYADSVKGRFTISRDNAKNTVYLQMNSLKPEVSAVYYCNADGQWNIWEYDYWGQGTQVTVSS | high polyreactivity
14 | QVQLVESGGGLVQAGGSLRLSCAASGGTFAVYAMGWYRQAPGKERELVAAIDSGGRTNYADSVKGRFTISRDNAKNTVYLQMNSLKPEDTAVYYCAADGGGQYVRYDYWGQGTQVTVSS | high polyreactivity
15 | QVQLVESGGGLVQAGGSLRLSCAASGFTFIKYAMGWYRQAPGKEREFVSTISWNGGNTYYADSVKGRFTISRDNAKNTVYLQINSLKPEDTAVYYGAARVKYRTRGGTVVSYDYWGQGTQVTVSS | high polyreactivity
16 | QVQLVESGGGLVQAGGSLRLSCAASGSFIVQNSMGWYRQAPAKERELVAANTRGGSTYYADSVKGRFTISRDNAKNTVYLQMNSLKPEDTAVYYCAAYWYYYLMDYWGQGTQVTVSS | low polyreactivity
17 | EVQVVESGGGLVQAGGSLRLSCAASGRIFLRNAMGWYRQAPGKEWEFVATITSGGSTFYADSVKGRFTISRDNAKNTFYLQMNRLKPEDTAVYYCAAPSYYTPFHTPNYCWGQVTQVTVSS | low polyreactivity
18 | QVQLVESGGGLVQAGGSLRLSCAASGIIFPSYAMGWYRQAPGKERELVAAINSSGGSTYYADSVKGRFTISRDNAKNTVYLQMNSLKPEDTAVYYCAAEADLQWYPYSFPYPYYYWGQGTQVTVSS | high polyreactivity
19 | QVQLVESGGGLVQAGGSLRLSSAASGRTLFDNAMGWYRQAPGKEREWVAAIRSDGNTNYADSVKGRFTISRDNAKNTVYLQMNSLKPEDTAVYYCNARSYVGSSRDNYWGQGTQVTVSS | low polyreactivity
20 | QVQLVESGGGLVQAGGSLRLSCAASGRTFLNNAMGWYRQAPGKERELVAAITKSGGSTYYADSVKGRFTISRDNAKNTVYLQMNSLKPEDTAVYYCAAARRYYTYYREDYYYWGQGTQVTVSS | high polyreactivity
21 | QVQLVESGGGLVQAGGSLRLSCAASGRIFDQNAMGWYRQAPGKERELVAAISSSGGRTYYADSVKGRFTISRDNAKNTVYLQMNSLKPEDTAVYYCAARYRFQRGGYYYWGQGTQVTVSS | high polyreactivity
22 | QDQIVESGGGLVQAGGSLRLSCSATGRTYVIYAMGWYRQAHGKERELVASIRRGGSTSYADSVKGRFTISRDNAKNTVYLQMKSLKPEDTAVYYCAAGAHRASSSGNGYWGQGSQVTVSS | high polyreactivity

Row | Sequence | polyreactivity (PSR sort gate)
23 | QVQLVESGGGLVQAGGSLRLSCAASGRIFDVYAMGWYRQAPGKERELVAAITWSGTSTYYADSVKGRFTISRDNAKNTVYLQMNSLKPEDTAVYYCNALSYGRYLNYRGGMDYWGQGTQVTVSS | high polyreactivity
24 | QLQLVESGGGLVQAGGSLRLSCAANGSTFWIYAMGWYRQAPGKERELVAAITLRSGSTYYADSVKGRFTMSRDNAKNTVYLQMNSLKPEDTAVYYCATDSWGVDRPNYNYWGQGTQVTVSS | low polyreactivity
25 | QVQLVESGGGLVQAGGSLRLSCAAYGSTFHYYSMGWYRQAPGKERELVAAISSSGVSTYYADSVKGRFTISRDYAKNTVYLQMNSLKPEDTAVYYCNRASVFHYRWYYYWGLGTQVTVSS | high polyreactivity
26 | QVQLVESGGGLFQAGGSLRLICAASGRIFDVNAMGWYRQAPGKERELVAAISWSGGITYYADSVKGRFTISRDNAKNTVYLQINSLKPEDTAVYYCAADKYQGYTFYQGYPGGGGYWGQGTQVTVSS | low polyreactivity
27 | QVQLVESGGGLVQAGGSLRLSCAAYGSIFRSYAMGWYRQAPGKERELVAAISSRYGSTYYADSVKGRFTISRDNAKNTVYLQMNSLKPEDTAVYYCGSQHRHSYGYWGQGTQVTVSS | high polyreactivity
28 | QVHLVESGGGLVQAGGSLRLSFAASGRIFARYALGWYRPAPGKERELVAAITSGGSTHYADSVKGRFTIARENAKNTVYLQMNSLKPEDSAVYYCAAVYRGQRYDYWGQGTQVTVSS | high polyreactivity
29 | QVQLVETGGGLVQAGGSLRLSCAASRSIFLYYAMGWYRQAPGKERELVAAISYSGSGTYADSVKGRFTISRDNAKNTVYLEMNSLKPEDTAVYYCNVDYGSYSYDYWGQGTQVTVSS | low polyreactivity
30 | QVQLVESGGGLVQAGGSLRLSCAASGRIFIYNAMGWYRQAPGKERELVAAISYSGGRTYYADSVKGRFTISRDNPKNTVYLQMNRLKPEDPAVYYCNAAYRISSAPGYFYFPYNYDYWGQGTQVTVSS | high polyreactivity
31 | QVQLVESAGGLVQAGGSLRLSCAASGSTFSYNAMGWYRQAPGKEREFVAAISSRGGNTFYADSVKGRFTISRDNAKNTVYLQMNSLKPEDTAVYYCAARFNRPYDYWGQGTQVTVSS | low polyreactivity
32 | QVQRVESGGGLVQAGGSLRLSCADSGFIFRRYAMGWYRQAPGKERELVAAITSSGGTTYYADSVKGRFTISRDNAKNTVYLQMNSLKPEDTAVYYCNAVRGVYARRSDYWGQGTEVTVSS | high polyreactivity
33 | QVHLVESGGGLVQAGGSLRLSCAASGFIFRIYAMGWYRQAPGKERELVAAINSSVSTSYADSVKGRFTISRDNAKNTVYLQMNSLKPEDTAVYYCAASRWPYPSYLYIVDSWGQGTQVTVSS | low polyreactivity
34 | QVQLVESGGGLVQAGGSLRLSCAASGRTFVYNAMGWYRQAPGKERELVATITFSGGSTYYADSVKGRFTISRDNAKNTVYLQMNSLKPEDTAVYYCNTQGVHHYYHAPQVRGYDYWGQGTQVTVSS | low polyreactivity
35 | QVQLVESGGGLVQAGGSLRLSCAASGRIFYLNVMGWYRQAPGKERELVAAITRRDVTTYADSVKGRFTISRDNAKNTVYLQMNSLKPEDTAVYYCNAVYYNWIGFDYWGQGTQVSVSS | low polyreactivity
36 | QVQLVESGGGLVQAGGSLRLSCAASGNIFESYGMGWYRQAPGKERELVATINTSSGSTYYADSVKGRFTISRDNAKNTVYLQMNILKPEDTAVYYCAAEWYPYPWGYGYWGQGTQVTVSS | low polyreactivity
37 | QVQLVESGGGLVQAGGSLRLSCAASGRIFSPYAMGWYRQAPGKERELVAAISSSGTYYADSVKGRFTISRDNAKNTVYLQMNSLKPEDTAVYYCNARRYWGRYDYWGQGTQVTVSS | high polyreactivity
38 | QVQLVESGGGLVQAGGSLGLSCAASGSIFSRNTMGWYRPARGKERELVAAITSSGGNTYYADSVKGRFTISRDNAKNTVYLQMNSLKPDDTAVYYCAADVAQVGYQVGDSEIYPGYEDWGQGSQVTVSS | low polyreactivity
39 | QVQLVESGGGLVQAGGSLRLSCAASGYIFRFYTMGWYRQAPGKERELVASITRSGGSTYYADSVKGRFTISRDNAKNTVYLQMNSLKPEDTAVYYCNARKTVGMDYWGQGTQVTVSS | low polyreactivity
40 | QVQLVESGGGLVQAGGSLRLSCAASGRTFYSNAMGWYRQAPGKERELVATISSGGSTNYADSVKGRFTISRDNAKNTVYLQMNSLKPEDTAVYYCATRPDRINDYWGQGTQVTVSS | low polyreactivity
41 | QVQLVESGGGLVQAGGSLRLSCAASGRIFGVYALGWYRQAPGKARELVAVINGRGSRTYYADSVKGRFRISRDNAKNTVYLQMNSLKPEDTAVYYCAAGYPASEYDYWGQGTQVTVSS | high polyreactivity
42 | QVQLVESRGGLVQAGGSLRLSCAASGITFTRNVMGWYRPAPGKERELVAGISRSGGRTYYADSVKGRFTISRENAKNTVYLQMNSLKPEDTAVYYCAADYSRRTRVDDDYDYWGQGTQVTVSS | high polyreactivity
43 | QVQLVESGGGLVQAGGSLRLSCAASGSTFGYNAMGWYRQAPGKERELVAAISSSGSSTSYADSVKGRFTISRDNAQNTVYLQMNSLKPEDTAVYYCAARWTRQRYRTSYYSWGQGTEVTVSS | high polyreactivity
